The target of test [1] is T1, HLA-DP molecule DPB1*0101 (human, UniProt P20036 29-222; P04440 30-225, limits assumed).
T1 MHC II alpha: not shown
T1 MHC II beta: not shown
Put plainly: inhibition of radiolabeled peptide binding to purified HLA-DP.

Test [2] addresses T2, HLA-DP molecule DPB1*0201 (human, UniProt P20036 29-222; P04440 30-225, limits assumed).
T2 MHC II alpha: not shown
T2 MHC II beta: not shown
The description is as above.

Test [3] concerns the target HLA-DP molecule DPB1*2001 (human). The test is described as above.
Test [4] deals with T3, HLA-DP molecule DPB1*0401 (human).
T3 chain 1: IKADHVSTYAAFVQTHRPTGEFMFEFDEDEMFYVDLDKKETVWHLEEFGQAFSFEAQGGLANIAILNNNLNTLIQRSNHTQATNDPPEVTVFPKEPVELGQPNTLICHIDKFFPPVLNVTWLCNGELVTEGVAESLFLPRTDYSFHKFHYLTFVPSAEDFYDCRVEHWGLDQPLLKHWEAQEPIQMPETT
T3 chain 2: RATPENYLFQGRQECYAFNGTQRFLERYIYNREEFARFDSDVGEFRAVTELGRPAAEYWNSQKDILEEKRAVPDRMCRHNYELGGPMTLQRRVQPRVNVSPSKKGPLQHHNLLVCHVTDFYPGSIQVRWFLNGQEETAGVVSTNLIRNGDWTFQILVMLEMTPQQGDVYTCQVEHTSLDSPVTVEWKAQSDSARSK
The description is as above.

The target of test [5] is HLA-DQ molecule DQB1*0202 (human). Put plainly: competition: inhibition of radiolabeled peptide binding to purified HLA.
Test [6] deals with HLA-DQ molecule DQB1*0602 (human). The test is described as above.
In test [7] the target is HLA-DQ molecule DQB1*0202 (human). Put plainly: inhibition of radiolabeled peptide binding to purified HLA.
For test [8], the target named is T4, HLA-DQ molecule DQB1*0501 (human, limits assumed).
T4 MHC II alpha: not shown
T4 MHC II beta: not shown
The test is described as above.

The target in test [9] is HLA-DQ molecule DQB1*0502 (human). Described as above.
Test [10] addresses HLA-DQ molecule DQB1*0503 (human). The description is as above.
Test [11] deals with HLA-DQ molecule DQB1*0602 (human). The description is as above.
The target of test [12] is T5, HLA-DP molecule DPB1*0501 (human, UniProt P20036 29-222; P04440 30-225, limits assumed).
T5 MHC II alpha: not shown
T5 MHC II beta: not shown
Put plainly: inhibition of radiolabeled peptide binding to purified HLA-DP.

Test [13] concerns the target HLA-DP molecule DPB1*1401 (human). The test is described as above.
Test [14] deals with T6, HLA-DQ molecule DQB1*0501 (human, limits assumed).
T6 MHC II alpha: not shown
T6 MHC II beta: not shown
Kind of test: inhibition of radiolabeled peptide binding to purified HLA-DQ.

Test [15] deals with HLA-DQ molecule DQB1*0503 (human). The description is as above.
Test [16] concerns the target HLA-DQ molecule DQB1*0602 (human). The description is as above.
Test [17] deals with T7, HLA DQ molecule DQB1*0302 (human, UniProt P01909 24-216; P01920 33-230, limits assumed).
T7 MHC II alpha: not shown
T7 MHC II beta: not shown
Kind of test: inhibition of radiolabeled peptide binding to purified HLA class II.

In test [18] the target is T8, HLA DQ molecule DQB1*0501 (human, limits assumed).
T8 MHC II alpha: not shown
T8 MHC II beta: not shown
The test is described as above.

The target of test [19] is HLA DQ molecule DQB1*0502 (human). The test is described as above.
In test [20] the target is HLA DQ molecule DQB1*0503 (human). The test is described as above.
Test [21] concerns the target HLA DQ molecule DQB1*0602 (human). Described as above.
The target of the next test is T9, HLA-DP DPB1*0401 (human).
T9 chain 1: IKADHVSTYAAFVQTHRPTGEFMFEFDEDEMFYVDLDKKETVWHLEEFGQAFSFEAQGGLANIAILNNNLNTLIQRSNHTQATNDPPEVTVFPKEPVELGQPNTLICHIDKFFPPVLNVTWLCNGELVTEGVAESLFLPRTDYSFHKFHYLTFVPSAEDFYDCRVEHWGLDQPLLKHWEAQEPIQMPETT
T9 chain 2: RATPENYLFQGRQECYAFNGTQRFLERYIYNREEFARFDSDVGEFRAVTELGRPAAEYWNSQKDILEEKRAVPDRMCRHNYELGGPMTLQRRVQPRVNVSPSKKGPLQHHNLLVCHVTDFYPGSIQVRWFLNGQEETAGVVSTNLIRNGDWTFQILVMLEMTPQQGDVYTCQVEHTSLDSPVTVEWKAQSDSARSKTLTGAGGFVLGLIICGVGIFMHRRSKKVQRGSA
Kind of test: inhibition of radiolabeled peptide binding to purified HLA-DP.

In test [22] the target is HLA-DQ molecule DQB1*0202 (human). Kind of test: inhibition of radiolabeled peptide binding to purified HLA-DQ.
For test [23], the target named is HLA-DQ molecule DQB1*0301 (human, UniProt P01909 24-216; P01920 33-230, limits assumed). The test is described as above.
The target in test [24] is T10, HLA-DQ molecule DQB1*0302 (human, UniProt P01909 24-216; P01920 33-230, limits assumed).
T10 MHC II alpha: not shown
T10 MHC II beta: not shown
The description is as above.

In test [25] the target is T11, HLA-DQ molecule DQB1*0402 (human, UniProt P01909 24-216; P01920 33-230, limits assumed).
T11 MHC II alpha: not shown
T11 MHC II beta: not shown
The description is as above.

The target of test [26] is HLA-DQ molecule DQB1*0502 (human). Put plainly: competition: inhibition of radiolabeled peptide binding to purified HLA.
The target of test [27] is HLA-DQ molecule DQB1*0503 (human). The description is as above.

The values below come from patent publication US20150004189A1 (published 2015).

NDKFTVFEGAFNKAI [Pha a 5 peptide, position 181, NDKFTVFEGAFNKAI (Peptide ID 3324.1442)]: the IC50 amounted to 0.613 µM in test [1], 0.028 µM in test [2], 0.097 µM in test [3] and 0.177 µM in test [4].

AQGKAFYEAVAKAHQ [Alt a 7 peptide, position 190, Peptide ID 3324.0080]: the IC50 in [5] was 50 µM; in [6], 2.36 µM.

Turning to EIYNMVKFRMIAGQE [Der p 4 peptide 3324.0978 (position 386)], the IC50 was 29.1 µM in [7]; 3.71 µM in [8]; 26.6 µM in test [9]; 11.2 µM in test [10]; 0.368 µM in [11].

As for PAAAYATATPAAATA [Lol p 5 1 peptide, position 306, PAAAYATATPAAATA (Peptide ID 3324.1184)], the IC50 is 3.49 µM in test [2], 12.4 µM in test [12], 0.299 µM in test [13] and 0.611 µM in test [3].

For ERSLWIIFSKNLNIK [Cha o 1 (86-100) peptide ERSLWIIFSKNLNIK], the IC50 in test [14] turned out to be 0.729 µM; in [15], 0.301 µM; in [16], 0.432 µM.

Take DSYKFIPTLVAAVKQ [Lol p 5 1 peptide, position 236, DSYKFIPTLVAAVKQ (Peptide ID 3324.1165)]: the IC50 in test [1] is 0.079 µM; in test [2] it was 0.069 µM; in [12] it was 0.0069 µM; in test [3], 0.012 µM.

On to PAVKYIEPDMIVNAT [Pen ch 13 (101-115) peptide PAVKYIEPDMIVNAT, Peptide ID 3324.1304], for which the IC50 in test [17] worked out at 0.822 µM; in test [18], 0.119 µM; in test [19] it was 1.96 µM; in test [20], 1.79 µM; in test [21], 0.549 µM.

EGTVDFIFGEARSLY [Sal k 1 1 peptide 191-205, EGTVDFIFGEARSLY (Peptide ID 3324.1590)] returned a half-maximal inhibitory concentration (IC50) with HLA-DP DPB1*0401 of 2.04 µM.

Turning to NLNIKLNMPLYIAGN [Cha o 1 (96-110) peptide NLNIKLNMPLYIAGN], the IC50 was 39.7 µM in test [22]; 31.9 µM in [23]; 50 µM in test [24]; 30.4 µM in test [25]; 10.7 µM in test [15]; 2.86 µM in [16].

Consider INELIASGSEKLASV [Alt a 5 peptide, position 51, Peptide ID 3324.0065], for which the IC50 came to 25.9 µM in test [26], 7.54 µM in test [27] and 0.302 µM in [6].

Regarding GGRLAFQEFMIVPCE [Alt a 6 peptide, position 161, Peptide ID 3324.0073], the IC50 in test [5] is 32.1 µM; in test [27], 4.94 µM; in [6], 1.29 µM.

As a reminder, the IC50 is the concentration at which inhibition is half-maximal. Read a high IC50 as weaker potency in that assay.
